Patent US8637043B2, “Compositions useful as ligands for the formyl peptide receptor like 1 receptor and methods of use thereof” (Chemocentryx, Inc., priority 2001, dated 2014)
Several values for one entry are separate records, joined by “and”; a condition that tells them apart may be missing. Identical values can stand only once. Ends that are not written are not given here.

Legend:
[1] = system: human monocytes; test: Calcium flux in human monocytes; assay type: cell-based; details: for calcium flux: human monocytes, Example 8; for calcium release: freshly prepared human monocytes, up to 250 nM
Procedure: (§1) Ca^2+ mobilization responses were performed using the intracellular ratiometric fluorescent dye, lndo-1. Cells were loaded with Indo-1/AM (3 μM; Molecular Probes, Eugene, Oreg.) in culture medium (45 min, 20° C., 10^7 cells/ml). After dye loading, cells were washed once with 10 ml PBS) and resuspended at 10^6 cell/ml in HBSS containing 1% FBS. Cytosolic [Ca^2+] release was determined using excitation at 350 nm using a Photon Technology International fluorimeter (excitation at 350 nm, ratioed dual emission at 400 and 490 nm).
(§2) The human recombinant chemokines, leukotactin, MlP-1α, three known CKβ8 variants CKβ8(1-99), CKβ8(25-99), CKβ8-1(1-116) and a novel NH2-terminal truncated form of CKβ8-1, CKβ8-1 (25-116) were obtained from R&D Systems (Minneapolis, Minn.). Human monocytes were generated from buffy coats (Stanford Blood Center, Palo Alto, Calif.) following a standard protocol. Briefly, PBMC were isolated by standard density gradient centrifugation (Ficoll-Paque-Plus, Pharmacia). Monocytes were purified using CD14 Microbeads (Miltenyi, Auburn, Calif.) magnetic positive selection. Human neutrophils were isolated from fresh peripheral blood from healthy individuals by gradient centrifugation on Ficoll-Hypaque (Hyclone, Calif.).
The activity of the CCL23 variants was tested on freshly prepared human monocytes and neutrophils using the calcium flux test described in Example 1.
(§3) Human monocytes were either generated from buffy coats (Stanford Blood Center, Palo Also, Calif.) or from fresh blood of healthy individuals following a standard protocol. Briefly, PBMC were isolated by a Ficoll-Paque gradient centrifugation (Ficoll-Paque-Plus, Pharmacia). Monocytes were purified by CD14 Microbeads (Miltenyi) magnetic positive selection. Human neutrophils were isolated from fresh blood by dextran sedimentation and gradient centrifugation Ficoll-Paque gradient centrifugation. All cells were washed and resuspended (1×10^7/ml) in RPMI medium with 10% FBS.
as §1, with “an” for “the”, “Indo-1.” for “lndo-1.”, “Probes (Eugene, Oreg.))” for “Probes, Eugene, Oreg.)”, “cells/mi).” for “cells/ml).”, “(10” for “with 10”

[2] = system: human neutrophils; test: Calcium flux in human neutrophils; assay type: cell-based; details: for calcium flux: human neutrophils
Procedure: as §1, §2, §3
as §1, with “an” for “the”, “Indo-1.” for “lndo-1.”, “Probes (Eugene, Oreg.))” for “Probes, Eugene, Oreg.)”, “cells/mi).” for “cells/ml).”, “(10” for “with 10”

[3] = system: human monocytes; test: Migration assay (ChemoTx), human monocytes; assay type: cell-based; details: 90 min, 1-100 nM
Procedure: Migration assays were performed on monocytes and neutrophils. Human monocytes and neutrophils (prepared as in Exampe 2) were harvested and resuspended in chemotaxis medium (CM). The CM consisted of Hank's buffered salt solution (Gibco, Mass.) containing CaCl2 (1 mM) and MgSO4 (1 mM) with added 0.1% BSA (Sigma, St. Louis, Mo.). The assays were performed in 96-well ChemoTx® microplates (Neuroprobe, Mass.). Leukotactin, MlP-1α and chemokines (CKβ8(1-99), CKβ8(25-99), CKβ8-1(1-116) or CKβ8-1(25-116), prepared as in Example 1) were added to the lower wells (final volume 29 μL), and 20 μL of cell suspension (5×10^6 cells/mL for monocytes; 2.5×10^6 cells/mL for neutrophils) added to the polycarbonate filters (5 μm pore size for monocytes; 3 μm pore size for neutrophils). After incubation for 90 min (37° C., 100% humidity, 5% CO2), cells were removed from the upper surface of the filter by scraping. Cells that migrated into the lower chamber were quantified using the Quant cell proliferation assay kit (Molecular Probes, Oreg.).
The chemotactic activity on human monocytes and neutrophils of chemokines: CKβ8(1-99), CKβ8(25-99), CKβ8(1-116) and CKβ8(25-116); W peptides 1 and 2 and the SHAAGtide sequences SEQ ID NO:1 and SEQ ID NO:2 was determined in migration assays. The above peptides were prepared as in previous examples. The migration assays were performed in 96-well CHEMOTX® microplates (Neuroprobe) using the protocol described in Example 5.

[4] = target: monocytes; test: 125I-MIP-1α binding competition, monocytes; design: species or system human; details: for IC50: Monocytes; for MIP-1α displacement on monocytes compared with HEK293-CCR1 cells: comparison in words
Procedure: The binding characteristics of CCL23 variants was compared in human CCR1 expressing cells. The ability of MIP-1α and the CCL23 variants CKβ8(1-99), CKβ8(25-99), CKβ8-1(1-116) and CKβ8-1(25-116) to compete with ^125I-MIP-1α binding was investigated in HEK293-CCR1 cells (prepared as in Example 1). The cells were incubated with ^125I-labeled MIP-1α (final conc. {dot over (˜)}0.05 nM) in the presence of unlabeled chemokine (3 hours at 4° C.: 25 mM HEPES, 140 mM NaCl, 1 mM CaCl2, 5 mM MgCl2 and 0.2% BSA, adjusted to pH 7.1). Reactions mixtures were aspirated onto PEI-treated GF/B glass filters using a cell harvester (Packard). The filters were washed twice (25 mM HEPES, 500 mM NaCl, 1 mM CaCl2, 5 mM MgCl2, adjusted to pH 7.1). Scintillant (MicroScint-10; 35 μl) was added to dried filters and the filiters counted in a Packard Topcount scintillation counter. Data were analyzed and plotted using Prism software (GraphPad Software, San Diego, Calif.).
Simiar binding competition tests were conducted on monocytes and neutrophils. These cells were prepared as in Example 2.

Row | Molecule | calcium flux [1] | calcium flux ([2]; Example 8) | migration of monocytes [3] | calcium release [1] | calcium flux ([2]; 100 nM) | IC50 [4] | maximal receptor stimulation compared with leukotactin ([1]; monocytes, 100 nM) | magnitude of calcium release compared with leukotactin ([2]; neutrophils, same amount of leukotactin) | MIP-1α displacement on monocytes compared with HEK293-CCR1 cells [4] | MIP-1α displacement activity on monocytes versus HEK293-CCR1 cells ([4]; fold higher on monocytes)
1 | MLWRRKIGPQMTLSHAAG [SEQ ID NO: 1] | robust calcium flux | robust calcium flux | produced migration | – | – | – | – | – | – | –
2 | MLWRRKIGPQMTLSHAAY [SEQ ID NO: 6] | robust calcium flux | robust calcium flux | – | – | – | – | – | – | – | –
3 | CKβ8(25-99): known truncated CKβ8 variant, human recombinant chemokine from R&D Systems (protein, listed as Homo sapiens) RFHATSADCCISYTPRSIPCSLLESYFETNSECSKPGVIFLTKKGRRFCANPSDKQVQVCMRMLKLDTRIKTRKN | – | – | moderate activity | slightly higher calcium stimulation | neither MlP-1α nor CKβ8(1-99), CKβ8(25-99) or CKβ8(1-116) induced a calcium flux | 0.25 nM | – | – | – | –
4 | CKβ8-1(25-116): novel NH2-terminal truncated form of CKβ8-1, SEQ ID NO: 16, human recombinant chemokine (protein, listed as Homo sapiens) MLWRRKIGPQMTLSHAAGFHATSADCCISYTPRSIPCSLLESYFETNSECSKPGVIFLTKKGRRFCANPSDKQVQVCMRMLKLDTRIKTRKN | robust calcium flux | robust calcium flux | dramatically higher activity than the other three variants at 100 nM and 1 and 10 nM was very similar to the other variants and produced migration | unique calcium flux with extended calcium release | induced an unique calcium release | 5 nM and 5.1 nM | at least two fold higher | much higher than observed for the same amount of leukotactin stimulation | higher MIP-1α displacement activities | over 10 fold
5 | CKβ8-1(1-116): alternatively spliced form of CKβ8, 116 amino acids, human recombinant chemokine (protein, listed as Homo sapiens) RVTKDAETEFMMSKLPLENPVLLDMLWRRKIGPQMTLSHAAGFHATSADCCISYTPRSIPCSLLESYFETNSECSKPGVIFLTKKGRRFCANPSDKQVQVCMRMLKLDTRIKTRKN | – | – | moderate activity | poor activity | neither MlP-1α nor CKβ8(1-99), CKβ8(25-99) or CKβ8(1-116) induced a calcium flux | 55 nM | – | – | higher MIP-1α displacement activities | –
